Test results from article PMC6737903, “The Hox gene Abdominal-B uses Doublesex^F as a cofactor to promote neuroblast apoptosis in the Drosophila central nervous system” (Development (Cambridge, England), 2019).

Molecular target: T1, His-Dsx^CR (Dsx common region, aa residues 1-397) (Drosophila, UniProt P23023 1-397)
T1 construct: Doublesex (Dsx), Drosophila, region common to the male and female isoforms, aa residues 1-397; source: bacterially expressed (0.5 mM IPTG, 18°C, 2 h), cell lysate for the pulldown; purified and dialyzed for EMSA; not shown: His tag, N-terminal, kept
Assay: pull-down; GST pulldown: GST-tagged AbdB proteins or GST alone as bait; bacterially expressed His-tagged Dsx proteins as input cell lysates; Western blot; three repetitions
Details: one partner purified

T1 sequence (P23023 1-397): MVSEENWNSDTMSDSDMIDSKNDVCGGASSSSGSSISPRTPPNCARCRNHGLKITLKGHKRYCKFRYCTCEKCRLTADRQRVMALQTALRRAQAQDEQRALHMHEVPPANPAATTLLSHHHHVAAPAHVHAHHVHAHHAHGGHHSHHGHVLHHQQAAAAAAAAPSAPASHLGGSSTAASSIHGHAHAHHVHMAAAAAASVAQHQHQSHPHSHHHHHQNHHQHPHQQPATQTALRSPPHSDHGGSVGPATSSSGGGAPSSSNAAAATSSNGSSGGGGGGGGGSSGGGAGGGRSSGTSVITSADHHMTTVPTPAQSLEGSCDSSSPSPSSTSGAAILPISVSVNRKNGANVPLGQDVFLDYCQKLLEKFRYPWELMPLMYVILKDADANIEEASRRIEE

- binding result: binds
B1: GST-AbdB-N (truncated version of AbdB-r, aa residues 89-270) (domain or fragment)
chain: not shown
notes: Abdominal-B (AbdB), Drosophila, regulatory isoform AbdB-r, aa residues 89-270; printed length of AbdB-r by the limits: 270; numbers count on: the AbdB-r isoform; The results say that AbdB-N lacks the first 89 amino acids; the methods give aa residues 89-270; also called GST-tagged AbdB-N; source: bacterially expressed (0.5 mM IPTG, 18°C, 2 h); GST-tagged bait in the pulldown; used as protein (50 …)
